Assay results reported in IntAct's records for PubMed 19015526.

B1: Ribonucleoside-diphosphate reductase subunit M2 B (Homo sapiens), Q7LG56-1 (parent)
chain: MGDPERPEAAGLDQDERSSSDTNESEIKSNEEPLLRKSSRRFVIFPIQYPDIWKMYKQAQASFWTAEEVDLSKDLPHWNKLKADEKYFISHILAFFAASDGIVNENLVERFSQEVQVPEARCFYGFQILIENVHSEMYSLLIDTYIRDPKKREFLFNAIETMPYVKKKADWALRWIADRKSTFGERVVAFAAVEGVFFSGSFAAIFWLKKRGLMPGLTFSNELISRDEGLHCDFACLMFQYLVNKPSEERVREIIVDAVKIEQEFLTEALPVGLIGMNCILMKQYIEFVADRLLVELGFSKVFQAENPFDFMENISLEGKTNFFEKRVSEYQRFAVMAETTDNVFTLDADF

Variants of: B1
Conditions: with atm_human ATM

effect of a mutation on the interaction | Variant
decreasing interaction | MGDPERPEAAGLDQDERSSSDTNESEIKSNEEPLLRKSSRRFVIFPIQYPDIWKMYKQAQASFWTAEEVDLAKDLPHWNKLKADEKYFISHILAFFAASDGIVNENLVERFSQEVQVPEARCFYGFQILIENVHSEMYSLLIDTYIRDPKKREFLFNAIETMPYVKKKADWALRWIADRKSTFGERVVAFAAVEGVFFSGSFAAIFWLKKRGLMPGLTFSNELISRDEGLHCDFACLMFQYLVNKPSEERVREIIVDAVKIEQEFLTEALPVGLIGMNCILMKQYIEFVADRLLVELGFSKVFQAENPFDFMENISLEGKTNFFEKRVSEYQRFAVMAETTDNVFTLDADF [S72A]
